In data set [1] the target is rIGFBP-3 (gift of D. Powell), P17936.
Data set [2] concerns the target rIGFBP-5 (gift of D. Andress), P24593.
Data set [3] has as its target C-terminally c-myc tagged rIGFBP-5 (human IGFBP-5 with myc epitope and His6, expressed in mammalian cells), P24593.

Sequence of rIGFBP-5 (gift of D. Andress), P24593 (P24593 21-272): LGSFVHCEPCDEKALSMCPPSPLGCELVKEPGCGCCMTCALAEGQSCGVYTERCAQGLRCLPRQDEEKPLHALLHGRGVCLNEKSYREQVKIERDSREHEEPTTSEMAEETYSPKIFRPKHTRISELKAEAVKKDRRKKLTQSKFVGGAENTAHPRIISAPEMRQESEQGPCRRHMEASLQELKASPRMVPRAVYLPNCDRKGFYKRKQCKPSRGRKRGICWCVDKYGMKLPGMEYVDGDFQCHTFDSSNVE
Sequence of C-terminally c-myc tagged rIGFBP-5 (human IGFBP-5 with myc epitope and His6, expressed in mammalian cells), P24593 (P24593 other isoform, or with tags, fused parts or gaps): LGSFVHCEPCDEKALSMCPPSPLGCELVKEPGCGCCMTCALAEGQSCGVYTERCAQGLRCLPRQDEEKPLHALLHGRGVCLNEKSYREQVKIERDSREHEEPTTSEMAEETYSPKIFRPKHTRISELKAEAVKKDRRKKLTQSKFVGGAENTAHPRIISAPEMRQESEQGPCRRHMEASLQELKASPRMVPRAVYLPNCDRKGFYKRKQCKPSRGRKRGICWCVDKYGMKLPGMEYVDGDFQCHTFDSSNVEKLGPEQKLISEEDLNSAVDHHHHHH
Sequence of rIGFBP-3 (gift of D. Powell), P17936 (P17936 28-291): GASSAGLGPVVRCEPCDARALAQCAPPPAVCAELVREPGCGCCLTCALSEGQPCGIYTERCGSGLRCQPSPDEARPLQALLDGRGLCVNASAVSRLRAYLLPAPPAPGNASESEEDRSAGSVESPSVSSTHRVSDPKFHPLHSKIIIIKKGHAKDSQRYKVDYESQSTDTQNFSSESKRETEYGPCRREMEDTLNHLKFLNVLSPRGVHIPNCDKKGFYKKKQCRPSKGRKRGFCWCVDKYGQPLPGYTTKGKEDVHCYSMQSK

B1: PAPP-A2 (recombinant, in medium from 293T cells transfected with cDNA encoding PAPP-A2, pPA2; also purified PAPP-A2) (protein)
chain: SPPEESNQNGGEGSYREAETFNSQVGLPILYFSGRRERLLLRPEVLAEIPREAFTVEAWVKPEGGQNNPAIIAGVFDNCSHTVSDKGWALGIRSGKDKGKRDARFFFSLCTDRVKKATILISHSRYQPGTWTHVAATYDGRHMALYVDGTQVASSLDQSGPLNSPFMASCRSLLLGGDSSEDGHYFRGHLGTLVFWSTALPQSHFQHSSQHSSGEEEATDLVLTASFEPVNTEWVPFRDEKYPRLEVLQGFEPEPEILSPLQPPLCGQTVCDNVELISQYNGYWPLRGEKVIRYQVVNICDDEGLNPIVSEEQIRLQHEALNEAFSRYNISWQLSVHQVHNSTLRHRVVLVNCEPSKIGNDHCDPECEHPLTGYDGGDCRLQGRCYSWNRRDGLCHVECNNMLNDFDDGDCCDPQVADVRKTCFDPDSPKRAYMSVKELKEALQLNSTHFLNIYFASSVREDLAGAATWPWDKDAVTHLGGIVLSPAYYGMPGHTDTMIHEVGHVLGLYHVFKGVSERESCNDPCKETVPSMETGDLCADTAPTPKSELCREPEPTSDTCGFTRFPGAPFTNYMSYTDDNCTDNFTPNQVARMHCYLDLVYQQWTESRKPTPIPIPPMVIGQTNKSLTIHWLPPISGVVYDRASGSLCGACTEDGTFRQYVHTASSRRVCDSSGYWTPEEAVGPPDVDQPCEPSLQAWSPEVHLYHMNMTVPCPTEGCSLELLFQHPVQADTLTLWVTSFFMESSQVLFDTEILLENKESVHLGPLDTFCDIPLTIKLHVDGKVSGVKVYTFDERIEIDAALLTSQPHSPLCSGCRPVRYQVLRDPPFASGLPVVVTHSHRKFTDVEVTPGQMYQYQVLAEAGGELGEASPPLNHIHGAPYCGDGKVSERLGEECDDGDLVSGDGCSKVCELEEGFNCVGEPSLCYMYEGDGICEPFERKTSIVDCGIYTPKGYLDQWATRAYSSHEDKKKCPVSLVTGEPHSLICTSYHPDLPNHRPLTGWFPCVASENETQDDRSEQPEGSLKKEDEVWLKVCFNRPGEARAIFIFLTTDGLVPGEHQQPTVTLYLTDVRGSNHSLGTYGLSCQHNPLIINVTHHQNVLFHHTTSVLLNFSSPRVGISAVALRTSSRIGLSAPSNCISEDEGQNHQGQSCIHRPCGKQDSCPSLLLDHADVVNCTSIGPGLMKCAITCQRGFALQASSGQYIRPMQKEILLTCSSGHWDQNVSCLPVDCGVPDPSLVNYANFSCSEGTKFLKRCSISCVPPAKLQGLSPWLTCLEDGLWSLPEVYCKLECDAPPIILNANLLLPHCLQDNHDVGTICKYECKPGYYVAESAEGKVRNKLLKIQCLEGGIWEQGSCIPVVCEPPPPVFEGMYECTNGFSLDSQCVLNCNQEREKLPILCTKEGLWTQEFKLCENLQGECPPPPSELNSVEYKCEQGYGIGAVCSPLCVIPPSDPVMLPENITADTLEHWMEPVKVQSIVCTGRRQWHPDPVLVHCIQSCEPFQADGWCDTINNRAYCHYDGGDCCSSTLSSKKVIPFAADCDLDECTCRDPKAEENQ
Turning to B1, the entries for the “activity assessed by ligand blotting using radiolabeled IGF-II” value in data set [1] and in data set [2] were “IGFBP-3 was partially degraded” and “IGFBP-5 showed complete cleavage”, respectively. The “Proteolytic activity was assessed by Western blotting using anti-c-myc” value in data set [3] is “In the absence of inhibitors, wild-type PAPP-A2 degraded all rIGFBP-5 (lane 3)”.

(Values after patent US20140141456.)
